Results as given in patent US11547673.

Assays:
[1] = target: human ACE2 peptidase domain (amino acids 1-615 of human ACE2 with C-terminal His-10 and Avi tags) (human) (UniProt Q9BYF1)
[2] = target: human ACE2 peptidase domain (amino acids 1-615 of human ACE2 with C-terminal His-10 and Avi tags) (human) (UniProt Q9BYF1); assay: biolayer interferometry; the reference KD of monomeric RBD is a literature value

Chain of UniProt Q9BYF1 (Q9BYF1 18-615 limits assumed): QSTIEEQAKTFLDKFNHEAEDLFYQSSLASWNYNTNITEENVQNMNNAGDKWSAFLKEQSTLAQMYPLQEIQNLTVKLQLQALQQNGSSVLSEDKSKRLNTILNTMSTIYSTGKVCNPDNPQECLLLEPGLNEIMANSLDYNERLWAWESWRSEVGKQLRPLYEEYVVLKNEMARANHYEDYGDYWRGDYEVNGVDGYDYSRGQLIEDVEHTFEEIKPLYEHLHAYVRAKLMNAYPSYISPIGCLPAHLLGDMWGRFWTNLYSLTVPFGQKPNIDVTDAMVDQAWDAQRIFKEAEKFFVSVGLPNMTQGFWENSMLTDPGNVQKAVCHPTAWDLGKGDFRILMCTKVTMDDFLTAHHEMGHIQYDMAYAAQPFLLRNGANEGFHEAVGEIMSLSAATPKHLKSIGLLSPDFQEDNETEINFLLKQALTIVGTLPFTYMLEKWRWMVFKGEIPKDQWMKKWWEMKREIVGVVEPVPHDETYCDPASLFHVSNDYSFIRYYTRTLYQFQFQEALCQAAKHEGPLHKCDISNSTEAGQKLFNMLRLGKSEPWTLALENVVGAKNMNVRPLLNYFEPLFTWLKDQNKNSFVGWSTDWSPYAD

Substance: trimerised SARS-CoV-2 S receptor-binding domain fused to the T4 fibritin foldon trimerisation domain (ligand; other documents disagree on this pair)
- Kd [1]: 5 pM
- fold of the reported KD of monomeric RBD [2]: 1000 fold
